Source: patent US20150344570A1 (published 2015)

B1: GpH7-A5/GpH7-B3 variant E269_04F/GpL16-k0 (antibody, human IgG1, kappa)
heavy 1: not shown
heavy 2: not shown
light: DIVMTQSPLSLPVTPGEPASISCQASESLVHSNRNTYLHWYLQKPGQSPQLLIYKVSNRFSGVPDRFSGSGSGTDFTLKISRVEAEDVGVYYCSQNTHVPPTFGQGTKVEIERTVAAPSVFIFPPSDEQLKSGTASVVCLLNNFYPREAKVQWKVDNALQSGNSQESVTEQDSKDSTYSLSSTLTLSKADYEKHKVYACEVTHQGLSSPVTKSFNRGEC
notes: heterodimerized IgG1, mutation in one H chain; also called He Ab
B2: GpH7-A5/GpH7-B3 variant I336_18N/GpL16-k0 (antibody, human IgG1, kappa)
heavy 1: not shown
heavy 2: not shown
light: DIVMTQSPLSLPVTPGEPASISCQASESLVHSNRNTYLHWYLQKPGQSPQLLIYKVSNRFSGVPDRFSGSGSGTDFTLKISRVEAEDVGVYYCSQNTHVPPTFGQGTKVEIERTVAAPSVFIFPPSDEQLKSGTASVVCLLNNFYPREAKVQWKVDNALQSGNSQESVTEQDSKDSTYSLSSTLTLSKADYEKHKVYACEVTHQGLSSPVTKSFNRGEC
notes: as for B1
B3: GpH7-A5/GpH7-B3 variant I336_10E/GpL16-k0 (antibody, human IgG1, kappa)
heavy 1: not shown
heavy 2: not shown
light: DIVMTQSPLSLPVTPGEPASISCQASESLVHSNRNTYLHWYLQKPGQSPQLLIYKVSNRFSGVPDRFSGSGSGTDFTLKISRVEAEDVGVYYCSQNTHVPPTFGQGTKVEIERTVAAPSVFIFPPSDEQLKSGTASVVCLLNNFYPREAKVQWKVDNALQSGNSQESVTEQDSKDSTYSLSSTLTLSKADYEKHKVYACEVTHQGLSSPVTKSFNRGEC
notes: as for B1
B4: GpH7-A5/GpH7-B3 variant K334_10E/GpL16-k0 (antibody, human IgG1, kappa)
heavy 1: not shown
heavy 2: not shown
light: DIVMTQSPLSLPVTPGEPASISCQASESLVHSNRNTYLHWYLQKPGQSPQLLIYKVSNRFSGVPDRFSGSGSGTDFTLKISRVEAEDVGVYYCSQNTHVPPTFGQGTKVEIERTVAAPSVFIFPPSDEQLKSGTASVVCLLNNFYPREAKVQWKVDNALQSGNSQESVTEQDSKDSTYSLSSTLTLSKADYEKHKVYACEVTHQGLSSPVTKSFNRGEC
notes: as for B1
B5: GpH7-A5/GpH7-B3 variant K326_14T/GpL16-k0 (antibody, human IgG1, kappa)
heavy 1: not shown
heavy 2: not shown
light: DIVMTQSPLSLPVTPGEPASISCQASESLVHSNRNTYLHWYLQKPGQSPQLLIYKVSNRFSGVPDRFSGSGSGTDFTLKISRVEAEDVGVYYCSQNTHVPPTFGQGTKVEIERTVAAPSVFIFPPSDEQLKSGTASVVCLLNNFYPREAKVQWKVDNALQSGNSQESVTEQDSKDSTYSLSSTLTLSKADYEKHKVYACEVTHQGLSSPVTKSFNRGEC
notes: as for B1
B6: GpH7-A5/GpH7-B3 variant I336_03V/GpL16-k0 (antibody, human IgG1, kappa)
heavy 1: not shown
heavy 2: not shown
light: DIVMTQSPLSLPVTPGEPASISCQASESLVHSNRNTYLHWYLQKPGQSPQLLIYKVSNRFSGVPDRFSGSGSGTDFTLKISRVEAEDVGVYYCSQNTHVPPTFGQGTKVEIERTVAAPSVFIFPPSDEQLKSGTASVVCLLNNFYPREAKVQWKVDNALQSGNSQESVTEQDSKDSTYSLSSTLTLSKADYEKHKVYACEVTHQGLSSPVTKSFNRGEC
notes: as for B1
B7: GpH7-A5/GpH7-B3 variant G236_20W/GpL16-k0 (antibody, human IgG1, kappa)
heavy 1: not shown
heavy 2: not shown
light: DIVMTQSPLSLPVTPGEPASISCQASESLVHSNRNTYLHWYLQKPGQSPQLLIYKVSNRFSGVPDRFSGSGSGTDFTLKISRVEAEDVGVYYCSQNTHVPPTFGQGTKVEIERTVAAPSVFIFPPSDEQLKSGTASVVCLLNNFYPREAKVQWKVDNALQSGNSQESVTEQDSKDSTYSLSSTLTLSKADYEKHKVYACEVTHQGLSSPVTKSFNRGEC
notes: as for B1
B8: GpH7-A5/GpH7-B3 variant E333_01G/GpL16-k0 (antibody, human IgG1, kappa)
heavy 1: not shown
heavy 2: not shown
light: DIVMTQSPLSLPVTPGEPASISCQASESLVHSNRNTYLHWYLQKPGQSPQLLIYKVSNRFSGVPDRFSGSGSGTDFTLKISRVEAEDVGVYYCSQNTHVPPTFGQGTKVEIERTVAAPSVFIFPPSDEQLKSGTASVVCLLNNFYPREAKVQWKVDNALQSGNSQESVTEQDSKDSTYSLSSTLTLSKADYEKHKVYACEVTHQGLSSPVTKSFNRGEC
notes: as for B1
B9: GpH7-A5/GpH7-B3 variant E269_15Y/GpL16-k0 (antibody, human IgG1, kappa)
heavy 1: not shown
heavy 2: not shown
light: DIVMTQSPLSLPVTPGEPASISCQASESLVHSNRNTYLHWYLQKPGQSPQLLIYKVSNRFSGVPDRFSGSGSGTDFTLKISRVEAEDVGVYYCSQNTHVPPTFGQGTKVEIERTVAAPSVFIFPPSDEQLKSGTASVVCLLNNFYPREAKVQWKVDNALQSGNSQESVTEQDSKDSTYSLSSTLTLSKADYEKHKVYACEVTHQGLSSPVTKSFNRGEC
notes: as for B1
B10: GpH7-A5/GpH7-B3 variant I336_02A/GpL16-k0 (antibody, human IgG1, kappa)
heavy 1: not shown
heavy 2: not shown
light: DIVMTQSPLSLPVTPGEPASISCQASESLVHSNRNTYLHWYLQKPGQSPQLLIYKVSNRFSGVPDRFSGSGSGTDFTLKISRVEAEDVGVYYCSQNTHVPPTFGQGTKVEIERTVAAPSVFIFPPSDEQLKSGTASVVCLLNNFYPREAKVQWKVDNALQSGNSQESVTEQDSKDSTYSLSSTLTLSKADYEKHKVYACEVTHQGLSSPVTKSFNRGEC
notes: as for B1
B11: GpH7-A5/GpH7-B3 variant E333_13S/GpL16-k0 (antibody, human IgG1, kappa)
heavy 1: not shown
heavy 2: not shown
light: DIVMTQSPLSLPVTPGEPASISCQASESLVHSNRNTYLHWYLQKPGQSPQLLIYKVSNRFSGVPDRFSGSGSGTDFTLKISRVEAEDVGVYYCSQNTHVPPTFGQGTKVEIERTVAAPSVFIFPPSDEQLKSGTASVVCLLNNFYPREAKVQWKVDNALQSGNSQESVTEQDSKDSTYSLSSTLTLSKADYEKHKVYACEVTHQGLSSPVTKSFNRGEC
notes: as for B1

Biological target: T1, FcγRIa (human, UniProt P12314 16-292)
T1 construct: extracellular domain; soluble extracellular domain with C-terminal His tag, expressed in FreeStyle293 cells; also called FcgRI; FcgRIa
T1 sequence (P12314 16-292): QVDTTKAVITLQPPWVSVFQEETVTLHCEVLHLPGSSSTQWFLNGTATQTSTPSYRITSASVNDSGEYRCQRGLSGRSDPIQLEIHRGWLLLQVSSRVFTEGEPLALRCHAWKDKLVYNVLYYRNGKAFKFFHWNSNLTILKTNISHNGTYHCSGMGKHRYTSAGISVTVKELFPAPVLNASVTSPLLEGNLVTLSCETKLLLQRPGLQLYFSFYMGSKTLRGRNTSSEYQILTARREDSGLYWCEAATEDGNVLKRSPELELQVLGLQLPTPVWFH
Assay: SPR (Biacore), captured antibody, FcγRIa analyte; relative to HeCon Ab GpH7-A5/GpH7-B3/GpL16-k0 = 100

Row | Binder | He/Con_1a
1 | B1 | 103 % of control
2 | B2 | 108 % of control
3 | B3 | 108 % of control
4 | B4 | 110 % of control
5 | B5 | 104 % of control
6 | B6 | 105 % of control
7 | B7 | 105 % of control
8 | B8 | 103 % of control
9 | B9 | 106 % of control
10 | B10 | 106 % of control
11 | B11 | 103 % of control
